These results are taken from paper PMC4971492.

This test deals with Bio-GFP-tagged KIF21A STALK (whole KIF21A stalk domain) (human). The experiment in a line: single-molecule GFP counting (TIRF); HEK293T cell extracts with Bio-GFP-tagged constructs, molecules immobilised on coverslips, initial fluorescence intensities against monomeric GFP and dimeric EB1-GFP; room temperature.

Chain of Bio-GFP-tagged KIF21A STALK (whole KIF21A stalk domain) (domain or fragment) (Q7Z4S6 whole entry, the tested form may be a part): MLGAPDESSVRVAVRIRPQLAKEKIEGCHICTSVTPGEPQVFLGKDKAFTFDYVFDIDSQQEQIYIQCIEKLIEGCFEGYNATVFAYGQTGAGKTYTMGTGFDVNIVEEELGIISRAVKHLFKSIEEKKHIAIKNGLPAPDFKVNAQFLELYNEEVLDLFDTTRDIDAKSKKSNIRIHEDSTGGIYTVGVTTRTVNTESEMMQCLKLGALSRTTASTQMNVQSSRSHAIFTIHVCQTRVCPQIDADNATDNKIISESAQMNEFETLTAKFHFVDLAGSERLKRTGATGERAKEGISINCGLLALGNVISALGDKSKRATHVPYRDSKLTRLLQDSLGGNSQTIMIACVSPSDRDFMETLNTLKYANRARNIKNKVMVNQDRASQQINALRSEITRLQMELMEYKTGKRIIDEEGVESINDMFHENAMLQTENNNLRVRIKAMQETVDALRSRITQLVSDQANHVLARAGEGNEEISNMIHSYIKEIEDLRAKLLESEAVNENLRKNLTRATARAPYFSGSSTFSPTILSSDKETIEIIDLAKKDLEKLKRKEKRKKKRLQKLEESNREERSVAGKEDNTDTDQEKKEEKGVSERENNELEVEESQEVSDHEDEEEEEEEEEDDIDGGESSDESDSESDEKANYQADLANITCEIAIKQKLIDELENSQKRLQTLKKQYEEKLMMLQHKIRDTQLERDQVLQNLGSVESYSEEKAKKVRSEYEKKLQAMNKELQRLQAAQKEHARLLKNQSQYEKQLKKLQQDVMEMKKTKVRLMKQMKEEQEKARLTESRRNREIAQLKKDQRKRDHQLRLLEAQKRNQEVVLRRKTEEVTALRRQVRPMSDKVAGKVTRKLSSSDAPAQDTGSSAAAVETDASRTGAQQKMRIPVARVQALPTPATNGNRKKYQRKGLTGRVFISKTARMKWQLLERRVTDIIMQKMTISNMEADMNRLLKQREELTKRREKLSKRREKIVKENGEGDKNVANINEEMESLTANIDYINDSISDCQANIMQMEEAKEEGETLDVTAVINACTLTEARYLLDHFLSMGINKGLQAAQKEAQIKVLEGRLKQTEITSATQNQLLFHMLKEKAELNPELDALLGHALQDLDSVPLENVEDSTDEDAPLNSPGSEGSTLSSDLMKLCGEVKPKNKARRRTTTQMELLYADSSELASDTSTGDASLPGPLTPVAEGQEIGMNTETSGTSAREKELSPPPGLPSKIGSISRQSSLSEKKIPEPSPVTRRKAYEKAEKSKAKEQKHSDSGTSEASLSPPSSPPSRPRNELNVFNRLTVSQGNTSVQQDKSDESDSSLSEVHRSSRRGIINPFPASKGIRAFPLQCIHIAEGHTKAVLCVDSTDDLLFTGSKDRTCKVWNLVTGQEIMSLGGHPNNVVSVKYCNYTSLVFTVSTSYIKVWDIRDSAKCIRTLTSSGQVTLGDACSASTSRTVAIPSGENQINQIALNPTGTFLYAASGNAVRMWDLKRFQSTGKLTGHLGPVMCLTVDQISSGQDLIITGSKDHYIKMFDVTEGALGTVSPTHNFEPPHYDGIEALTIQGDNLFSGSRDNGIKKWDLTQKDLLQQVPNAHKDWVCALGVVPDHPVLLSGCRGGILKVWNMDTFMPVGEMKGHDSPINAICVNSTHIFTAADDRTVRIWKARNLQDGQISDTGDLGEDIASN

“Bio-GFP-tagged KIF21A STALK (whole KIF21A stalk domain) (domain or fragment)” came in with a stoichiometry N of 2.
